Consider one molecule from patent US20100285583A1, “COMPOUNDS AND METHODS FOR INHIBITING PLATELET AGGREGATION” (priority 2009, published 2010).

In one experiment the test system is Human washed platelets. The experiment is described as follows: Platelet immunofluorescence analysis (subcellular localization). It is filed as cell-based. The note with it: 1.9 μM. As for the experimental part:
Washed platelets (50 μl of […] in Tyrode's albumin buffer) were incubated with 1.9 μM of PTB domain constructs for 5 min at room temperature in the presence of 0.25 g/L fibrinogen. Aggregation was initiated by the addition of 10 μM TRAP. Reactions were incubated at room temperature unless otherwise indicated. Platelets were fixed with 0.4 mL of 3.7% formaldehyde in Phosphate Buffered Saline (PBS) for 30 min. Next, 20% goat serum was added to the fixed platelets, and 60% of the total fixed reaction was centrifuged using a Shandon cytospinner onto a Shandon coated cytoslide to achieve the appropriate platelet density for analysis. Slides were then washed twice with PBS for 10 min. Platelets were permeabilized with 0.5% Triton X-100 in PBS for 10 min and then blocked with 20% goat serum in PBS with 0.1% Triton X-100 for 1 h at room temperature. Platelets were washed 3 times with PBS with 0.1% Triton for 10 minutes and further incubated overnight with the anti-Dab2 antibody 1:100 (anti-p96; BD Transduction) in PBS with 0.1% Triton X-100 and 10% goat serum at 4° C. in a humidity chamber. Platelets were then washed and incubated with the anti-mouse Cy-3 conjugated goat antibody 1:250 and Alexa488 conjugated phalloidin (25 μg/mL) in PBS with 0.1% Triton X-100 and 10% goat serum for 2 h. Platelets were washed again and observed on an Olympus IX71 microscope using the Softworx Applied Precision software.
Mean pixel intensity was determined for 400 platelets from four fields each for 3 min and 10 min of treatments by manually drawing circles around individual platelets using the 2D Polygon tool in the Softworx software. For each time point, a threshold of significant mean pixel intensity was defined for the experiment. The percentage of countable platelets to exceed the threshold was calculated for each field and the average of four fields was computed with standard deviation. The ratio of internalization:binding is the quotient of these averages for a treatment.

Experiment [1] is described as follows: Liposome-binding assay, sulfatide liposomes. The note with it: liposomes with sulfatides. The procedure: Lipid stocks including sulfatides, PE, PS, and PtdIns(4,5)P2 were dissolved in chloroform:methanol:water (1:2;0.8, 65:35:8, 65:35:4 and 65:35:8, respectively), whereas cholesterol and PC were dissolved in chloroform:methanol (1:1). Sulfatides liposomes were prepared in a weight ratio of 1:1:1:4 of PC:PE:cholesterol:sulfatides. PtdIns(4,5)P2 liposomes were prepared in a percent ratio of 50:20:10:10:10 of PC:PE:PS:cholesterol:PtdIns(4,5)P2. Controls were prepared by adjusting the ratios with PC. Lipid films were generated by lyophilization overnight and hydrated in 20 mM Tris-HCl (pH 6.8), 100 mM NaCl, 2 mM dithiothreitol (DTT) at 1 mg/mL and freeze-thawed 3 times. Liposomes were sonicated and further pelleted and suspended in 4 mg/mL. Ten μg of protein were incubated with 125 μg of total lipids for 20 min at RT. Liposome-bound and free-protein samples were separated by centrifugation and analyzed by SDS-PAGE. Bands were quantified using AlphaImager, and the percentage of total protein each fraction contained was calculated from the total protein.

B1: N-PTB: N-terminal phosphotyrosine binding domain (residues 1-241) of human Disabled-2 (Dab2), expressed as GST-fusion in E. coli (protein)
chain: MSNEVETSATNGQPDQQAAPKAPSKKEKKKGPEKTDEYLLARFKGDGVKYKAKLIGIDDVPDARGDKMSQDSMMKLKGMAARGRSQGQHKQRIWVNISLSGIKIIDEKTGVIEHEHPVNKISFIARDVTDNRAFGYVCGGEGQHQFFAIKTGQQAEPLVVDLKDLFQVIYNVKKKEEEKKKIEEASKAVENGSEALMILDDQTNKLKSGVDQMDLFGDMSTPPDLNSPTESKDILLVDLNS
Consider B1, for which the “localization at the platelet surface” value in the experiment with Human washed platelets (3 min after TRAP stimulation) was “clearly localized at the platelet surface”. The internalization entry in the experiment with Human washed platelets (10 min after activation) is listed as “internalized”. The sulfatide binding result in experiment [1] is “bound to sulfatide-enriched liposomes”.
